Test results: patent US20260001914A1, “MACROCYCLIC PEPTIDES TARGETING KRAS” (Merck Sharp & Dohme LLC, priority 2022, published 2026)

Legend:
[1] = biological target: KRAS-G12D in AsPC-1 cells (UniProt P01116); assay: cell-based or functional assay
[2] = biological target: Biotin-labeled KRAS-G12D protein (UniProt P01116-2 1-169, limits assumed, biotin label (site not stated); loaded with BODIPY-GDP); assay: cell-based or functional assay

| Substance | AlphaScreen @18 h, EC50 [1] [nM] | SOS assay EC50 [2] [nM] |
| --- | --- | --- |
| cyclo(INal-R-Phe4CH2NH2-Nle-Y-Nle-NMeF-daMeC-C1Ac) (peptide) | > 50800 | 1460 |
| cyclo(F-NMeR-3Pal-Nle-TyrOMe-LysN3-NMeF-tamcPr) (peptide) | > 50800 | 224 |
| cyclo(CPhe-NMeA-PyrimAla-cPrA-Phe2F-Nle3F2-NMeF-MeOximamBCP) isomer 2 (peptide) | 128 | 1.7 |
| cyclo(FLac-NMeA-PyrimAla-Nle-Phe2F-Nlecalken3Pal-amBCP) (peptide) | 11200 | 590 |
| cyclo(FLac-NMeA-PyrimAla-Nle-Phe2F-Nle-NMe3Pal-amBCP) (peptide) | 13400 | 33.6 |
| cyclo(Phe4F-NMeA-3Pal-Nle-Phe2F-Nle-NMe3Pal-amBCP) (peptide) | 42800 | 99.9 |
| cyclo(F-DabN3~3Pal-cBuA-V-Nle-NMe3Pal-amBCP) (peptide) | > 50800 | 6560 |
| cyclo(FLac-NMeA-PyrimAla-cPrA-Phe2F-Hag-NMeHag-amBCP) (peptide) | 41200 | 225 |
| cyclo(FLac-NMeA-PyrimAla-Nle-Phe2F-Nle-NMe3Pal-SMeamBCP) (peptide) | 23400 | 33.5 |
| cyclo(FLac-NMeNle-3Pal-DabN3-Phe2F-Nle-NMe3Pal-amBCP) (peptide) | 21700 | 3060 |
| cyclo(FLac-NMeA-PyrimAla-NleF-Phe2F-NleF-NMeF-amBCP) (peptide) | 3720 | 37.4 |
| cyclo(FLac-NMeA-4F3Pal-Nle-Phe2F-Nle-NMe3Pal-amBCP) (peptide) | 11800 | 18.7 |
| cyclo(FLac-NMeDabN3-4CF33Pal-Nle-Phe2F-Nle-NMe3Pal-amBCP) (peptide) | 6120 | 435 |
| cyclo(FLac-NMeA-PyrimAla-Nle-Phe2F-Nle-NMePhe3F-amBCP) (peptide) | 734 | 12.2 |
| cyclo(FLac-NMeA-PyrimAla-cBuA-Phe2F-hcPrA-NMeF-amBCP) (peptide) | 437 | 4 |
| cyclo(FLac-NMeA-PyrimAla-Nle-Phe2F-NleF-NMeF-amBCP) (peptide) | 2330 | 10.1 |
| cyclo(3Pal-NMeA-3Pal-Nle-Phe2F-Nle-NMe3Pal-amBCP) (peptide) | > 50800 | 3060 |
| cyclo(FLac-NMeA-PyrimAla-cPrA-Phe2F-hL-NMeF-amBCP) (peptide) | 168 | 1.95 |
| cyclo(FLac-NMeA-3Pal-Nle-Phe2F-Nva-NMe3Pal-amBCP) (peptide) | > 50800 | 154 |
| cyclo(FLac-NMeA-PyrimAla-Nle-Phe2F-Nle-NMePhe4Me-amBCP) (peptide) | 223 | 19.1 |
| cyclo(4Me3Pal-NMeA-3Pal-Nle-Phe2F-Nle-NMe3Pal-amBCP) (peptide) | > 50800 | 2890 |
| cyclo(FLac-NMeDabN3-3Pal-Nle-F2FLac-Nle-NMe3Pal-amBCP) (peptide) | 3480 | 5590 |
| cyclo(FLac-NMeNvalmid-4CF33Pal-Nle-Phe2F-Nle-NMeF-amBCP) isomer 1 (peptide) | > 50800 | 188 |

| Substance | AlphaScreen @18 h, EC50 [1] [nM] | SOS assay EC50 [2] [nM] |
| --- | --- | --- |
| cyclo(F-R-3Pal-cBuA-NvaOMe-Nle-NMeF-aMeC1-C1Ac (peptide) | > 50800 | 4410 |
| cyclo(FLac-NMeA-4F3Pal-Nle-Phe2F-Nva-NMeF-amBCP) (peptide) | > 50800 | 997 |
| cyclo(FLac-NMeNvaF-PyrimAla-cPrA-Phe2F-hL-NMeF-amBCP) (peptide) | 1230 | 26 |
| cyclo(FLac-NMeA-PyrimAla-Nle-2Pal6F-Nle-NMeF-amBCP) (peptide) | 48700 | 559 |
| cyclo(FLac-NMeNvalmid-PyrimAla-Nle-Phe2F-Nle-NMe3Pal-amBCP) (peptide) | > 50800 | 27.2 |
| cyclo(FLac-NMeA-4F3Pal-Nle-Phe2F-Nle-NMeF-amBCP) (peptide) | 589 | 72.4 |
| cyclo(FLac-NMeA-3Pal-Nle-Phe2F-Nle-NMeF-amBCP) (peptide) | 1440 | 50.3 |
| cyclo(FLac-NMeA-PyrimAla-cPrA-Phe2F-hcPrA-NMeF-amBCP) (peptide) | 615 | 2 |
| cyclo(FLac-NMeNvalmid-PyrimAla-Nle-F2FLac-Nle-NMe3Pal-amBCP) (peptide) | > 50800 | 1160 |
| cyclo(FLac-NMeA-3Pal-Nle-Phe2F-hL-NMe3Pal-amBCP) (peptide) | 4650 | 2.17 |
| cyclo(FLac-NMeA-PyrimAla-hL-Phe2F-Nle-NMe3Pal-amBCP) (peptide) | > 50800 | 228 |
| cyclo(F-R-3Pal-Nle-Phe2F-Nle-NMeF-aMeC1-C1Ac) (peptide) | > 50800 | 12.8 |
| cyclo(TyrOMe-NMeA~3Pal-Nle-Phe2F-Nle-NMe3Pal-amBCP) (peptide) | > 50800 | 756 |
| cyclo(FLac-NMeA-3Pal-Nle-Phe2F-Nle-NMeCha-amBCP) (peptide) | > 50800 | 2940 |
| cyclo(FLac-NMeA-PyrimAla-Nle-Phe2F-Nle-NMePhe4F-amBCP) (peptide) | 994 | 12.5 |
| cyclo(FLac-NMeA-PyrimAla-rF2Cba-Phe2F-Nle-NMe3Pal-amBCP) isomer 1 (peptide) | > 50800 | 236 |
| cyclo(FLac-NMeA-PyrimAla-cPeA-Phe2F-Nle-NMe3Pal-amBCP) (peptide) | 17400 | 22.3 |
| cyclo(FLac-NMeA-4F3Pal-Nle-2Pal6F-Nle-NMeF-amBCP) (peptide) | > 50800 | 870 |
| cyclo(Phe4Me-NMeA-3Pal-Nle-Phe2F-Nle-NMe3Pal-amBCP) (peptide) | 37200 | 91.1 |
| cyclo(FLac-NMeA-PyrimAla-NvaF-Phe2F-hL-NMeF-amBCP) (peptide) | 2260 | 7.79 |
| cyclo(FLac-NMeNvalmid-PyrimAla-Nle-Phe2F-Nle-NMeF-amBCP) isomer 1 (peptide) | > 50800 | 494 |
| cyclo(FLac-NMeNvaF2-PyrimAla-cPrA-Phe2F-hL-NMeF-amBCP) (peptide) | 1770 | 173 |
